Source: patent publication US20190022211A1 (CELLTRION, published 2019)
Several values for one entry are separate records, joined by “and”; a condition that tells them apart may be missing. Equal values may be shown once.

How the values were obtained:
[1] = molecular target: G protein of rabies virus Mongoose RSA , on virus (rabies virus); assay: cell-based or functional assay
[2] = molecular target: G protein of rabies virus DR Brazil , on virus (rabies virus); assay: cell-based or functional assay

Row | Binder | neutralizing activity (RFFIT) [1] | neutralizing activity (RFFIT), Titer [1] | neutralizing activity (RFFIT) [2] | neutralizing activity (RFFIT), Titer [2]
1 | antibody 1 (antibody, V domains shown) VH: VQLLQESGPGLAKPSETLSLICTVSGGSISRRRDYWGWIRQPPGRGLEWIGSFFHRGSTYYNPSLESRVSISVDPSKNQFSLHLSSVTVADTAVYYCARHPSTPFAEYLLLPDAFDSWGQGTLVTVSS VL: DIVMTQSPATLSVSPGERATLSCRASQSVRSSLAWYQQRPGQAPRLLISGASTRATDIPARLSGSGSGTEFTLTVSSLQSEDFAVYYCQQYSDWPLTFGGGTKVEIKR | 7.7 IU/mL and 7710 IU/mg | 270 | 2.2 IU/mL and 2240 IU/mg | 56
2 | antibody 2 (antibody, V domains shown) VH: EVQLVESGAEVKKPGASVKVSCKASGYTFTSYDISWVRQAPGQGLEWMGWISTYKGNTNFAQKFQDRVTLTTDTSTTTAYMELRSLTSDDTAVYYCARAKSHPFYDFWSAYYVPGAFDIWGQGTVVTVSS VL: not shown | 9.1 IU/mL and 9140 IU/mg | 320 | 1.8 IU/mL and 1800 IU/mg | 45
